# Laboratory results taken from paper PMC10840515.
# Target: HLA-DR1 (HLA-DRA*0101, HLA-DRB1*0101) (human)
# Assay: ELISA
substance,measurement,value
influenza A virus hemagglutinin (HA) peptide HA305-319,IC50,29 nM
